Results reported in US9593305B2, “Differentiation of pluripotent stem cells” (Janssen Biotech, Inc., priority 2008, dated 2017).

Assays:
Format in all cases: cell-based
[1] = test system: H1 human embryonic stem cells; assay: Definitive endoderm formation with TGF superfamily members, SOX17 and cell number (Example 14); conditions: dose titration with Wnt3a, Compound 34, or both
Protocol: Clusters were centrifuged at low speed to collect a cell pellet and remove residual dispase. […] All human embryonic stem cell lines were maintained at passage numbers less than 50 and routinely evaluated for normal karyotype and absence of mycoplasma.
Cells were washed again three times with PBS and blocked with 4% chicken serum (Invitrogen; Cat #16110082) in PBS for 30 minutes at room temperature. […] Plates were washed once with PBS and left in 100 μl/well PBS for imaging.

[2] = test system: H1 human embryonic stem cells; assay: Secondary assay: compound combined with individual growth factors or small molecules, no activin A (Example 5, Table 4); conditions: agent combined with 2.5 μM compound and Wnt3a, no activin A
Protocol: Clusters of H1 human embryonic stem cells were grown on reduced growth factor […]™ (Invitrogen; Cat #356231)-coated tissue culture plastic. Cells were passaged using collagenase (Invitrogen; Cat #Cat #17104-019) treatment and gentle scraping, washed to remove residual enzyme, and plated with even dispersal at a ratio of 1:1 (surface area) on reduced growth factor […]™-coated 96-well black plates (Packard ViewPlates; PerkinElmer; Cat #6005182) using volumes of 100 μl/well. Cells were allowed to attach as clusters and then recover log phase growth over a 1 to 3 day period, feeding daily with MEF conditioned medium supplemented with 8 ng/ml bFGF (R&D Systems; Cat #233-FB). Plates were maintained at 37° C., 5% CO2 in a humidified box throughout the duration of assay.
Other agents tested were purchased as follows: BMP-7 (Sigma; Cat #B1434), LY294002 (Cayman; Cat 70920), PD98059, U0126, U0124 (EMD Biosciences; Cat #453710), muscimol (Tocris; Cat #0289), biuculline (Tocris; Cat #0130), sodium butyrate (Sigma; Cat #B5887). All growth factors were solubilized in PBS with 0.1% BSA (Sigma; Cat #A7888) and stored frozen at −80° C. Small molecules were solubilized in 100% DMSO (Sigma; Cat #D2650) and stored frozen at −80° C. The compounds were available as 5 mM stocks in 96-well plate format, solubilized in 100% DMSO and stored at −80° C. The compounds of the present invention were further diluted to an intermediate concentration of 0.2 mM in 50 mM HEPES (Invitrogen; Cat #15630-080), 20% DMSO and stored at 4° C. All growth factors and inhibitors were prepared in a deep well, 96-well polypropylene plate, diluted to 5× intermediate stocks in DMEM:F12 base medium at the beginning of assay and stored at 4° C.
A secondary screening assay was conducted, testing in triplicate and feeding on alternate days over the four-day assay timeframe. Assays were initiated by aspirating culture medium from each well followed by three washes in PBS to remove residual growth factors and serum. Test volumes of 80 μl per well were added back containing DMEM:F12 base medium (Invitrogen; Cat #11330-032) supplemented with 0.625% FCS (HyClone; Cat #SH30070.03), 25 ng/ml Wnt3a (R&D Systems), and 3.125 μM compound plus 20 μl 5× stock of growth factor or small molecule to yield a final concentration of 0.5% FCS, 20 ng/ml Wnt3a, and 2.5 μM compound. […] Final assay concentrations of small molecules tested were as follows: muscimol (20 μM), PD98059 (1 μM), LY294002 (2.5 μM), 00124 (1 μM), U0126 (1 μM), sodium butyrate (0.5 mM). Positive control wells (100 μl/well) contained the same base medium supplemented with 0.5% FCS, 20 ng/ml Wnt3a and 100 ng/ml activin A. Negative control wells (100 μl/well) contained the same base medium with 0.5% FCS and 20 ng/ml Wnt3a, omitting activin A.
On day 3, wells were aspirated and fed with 80 μl DMEM:F12 base medium supplemented with 2.5% FCS (HyClone) and 3.125 μM cyclic aniline-pyridinotriazine compound plus 20 μl 5× stock of growth factors or small molecules per well to yield a final concentration of 2% FCS and 2.5 μM compound (omitting Wnt3a) and as denoted on day one for all remaining growth factors or small molecules. Positive control wells (100 μl/well) contained the same base medium supplemented with 2% FCS and 100 ng/ml activin A, omitting Wnt3a. Negative control wells (100 μl/well) contained the same base medium with 2% FCS, omitting both activin A and Wnt3a.
At the conclusion of four-days of culture, assay plates were washed twice with PBS, fixed with 4% paraformaldehyde (Alexis Biochemical; Cat #ALX-350-011) at room temperature for 20 minutes, then washed three times with PBS and permeabilized with 0.5% Triton X-100 (Sigma; Cat #T8760-2) for 20 minutes at room temperature. Cells were washed again three times with PBS and blocked with 4% chicken serum (Invitrogen; Cat #16110082) in PBS for 30 minutes at room temperature.

[3] = test system: H1 human embryonic stem cells; assay: Definitive endoderm formation with GDF family members, SOX17 and cell number (Example 13); conditions: for SOX17 expression, GDF growth factor substituting for activin A: 100 ng/ml GDF, alone or with Wnt3a, Compound 34 or Compound 56, four days
Protocol: Stock cultures of human embryonic stem cells (H1 human embryonic stem cell line) were maintained in an undifferentiated, pluripotent state on reduced growth factor […]™ (BD Biosciences; Cat #356231)-coated dishes in MEF conditioned medium with passage on average every four days. Passage was performed by exposing cell cultures to a solution of 1 mg/ml dispase (Invitrogen; Cat #17105-041) for 5 to 7 minutes at 37° C. followed by rinsing the monolayer with MEF conditioned culture medium and gentle scraping to recover cell clusters. Clusters were centrifuged at low speed to collect a cell pellet and remove residual dispase. Cell clusters were split at a 1:3 or 1:4 ratio for routine maintenance culture or a 1:1 ratio for immediate assay. All human ES cell lines were maintained at passage numbers less than 50 and routinely evaluated for normal karyotype and absence of mycoplasma.
Cell clusters were evenly resuspended in MEF conditioned medium supplemented with 8 ng/ml bFGF and seeded onto reduced growth factor […]™-coated 96-well Packard VIEWPLATES (PerkinElmer; Cat #6005182) in volumes of 0.1 ml/well. Daily feeding was conducted by aspirating spent culture medium from each well and replacing with an equal volume of fresh medium. Plates were maintained at 37° C., 5% CO2 throughout the duration of assay.
The assay was initiated by aspirating the culture medium from each well and adding back aliquots (100 μl) of test medium. Test conditions were performed in triplicate over a total four-day assay period, feeding on day 1 and day 3 by aspirating and replacing the medium from each well with fresh test medium. Various members of the GDF family of proteins were obtained for testing as follows: GDF-3 (PeproTech; Cat #120-22); GDF-5 (DePuy Orthopaedics, Inc., a Johnson & Johnson company); GDF-8 (R&D Systems; Cat #788-G8); GDF-10 (R&D Systems; Cat #1543-BP); GDF11 (PeproTech; Cat #120-11); GDF-15 (R&D Systems; Cat #957-GD). On the first day of assay, all wells received an aliquot (80 μl) of basal medium DMEM:F12 medium (Invitrogen; Cat #11330-032) supplemented with 0.5% fetal bovine serum (Hyclone; Cat #SH30070.03). A series of five different control or experimental test samples was created to evaluate activin A or various GDFs in combination with Wnt3a or Compound 34 or Compound 56. These test samples were added in 20 μl aliquots (5× concentrated) to appropriately matched assay wells to yield a final assay volume of 100 μl in each well at the final assay conditions indicated. In the first set of control samples, the following conditions were tested: 1) no additive (i.e. no supplementary growth factor or small molecule); 2) 100 ng/ml activin A (PeproTech; Cat #120-14) in combination with 20 ng/ml Wnt3a (R&D Systems; Cat #1324-WN/CF); 3) 20 ng/ml Wnt3a alone; 4) Compound 34 alone (2.5 μM) without any growth factor or small molecule; 5) Compound 56 alone (2.5 μM) without any growth factor or small molecule. In the second set of test samples, the following conditions were tested in combination with 100 ng/ml GDF3: 1) no additive (i.e. GDF-3 alone); 2) 20 ng/ml Wnt3a; 3) 20 ng/ml Wnt3a with Compound 34 (2.5 μM); 4) Compound 34 (2.5 μM); 5) Compound 56 (2.5 μM); and 6) 20 ng/ml Wnt3a with Compound 56 (2.5 μM). In the third set of test samples, each of the six conditions was combined with 100 ng/ml GDF-5. In the fourth set of test samples, each of the six conditions was combined with 100 ng/ml GDF-8. In the fifth set of test samples, each of the six conditions was combined with 100 ng/ml GDF-10. In the sixth set of test samples, each of the six conditions was combined with 100 ng/ml GDF-11. In the seventh set of test samples, each of the six conditions was combined with 100 ng/ml GDF-15. On the third day of assay, all wells for all test samples, received 100 ng/ml Activin A or 100 ng/ml respective GDF growth factor, without Wnt3a or Compound 34 or Compound 56, diluted into DMEM:F12 medium supplemented with 2% FBS. […]

## TGFβ-1: TGF superfamily growth factor, R&D Systems
[1]
  induction of SOX17 expression compared to the Wnt3a treatment alone: weak or negligible

## BMP-4: member of the BMP family, R&D Systems
[2]
  effect on SOX17 expression: inhibited or had negligible effects on SOX17 expression
[1]
  cell numbers at the conclusion of assay: significant effect on cell numbers
  induction of SOX17 expression compared to the Wnt3a treatment alone: weak or negligible

B1: GDF-5: member of the GDF family of proteins (DePuy Orthopaedics) (protein, UniProt P43026 382-501, looked up)
Growth/differentiation factor …: APLATRQGKRPSKNLKARCSRKALHVNFKDMGWDDWIIAPLEYEAFHCEGLCEFPLRSHLEPTNHAVIQTLMNSMDPESTPPTCCVPTRLSPISILFIDSANNVVYKQYEDMVVESCGCR
[3]
  SOX17 expression, GDF growth factor substituting for activin A: induced weak expression of SOX17

B2: GDF15: member of the GDF family of proteins (R&D Systems) (protein, UniProt Q99988 195-308, looked up)
Growth/differentiation factor …: ARARNGDHCPLGPGRCCRLHTVRASLEDLGWADWVLSPREVQVTMCIGACPSQFRAANMHAQIKTSLHRLKPDTVPAPCCVPASYNPMVLIQKTDTGVSLQTYDDLLAKDCHCI
[3]
  SOX17 expression, GDF growth factor substituting for activin A: induced significant levels of SOX17 expression

B3: GDF-3: member of the GDF family of proteins (PeproTech) (protein, UniProt Q9NR23 251-364, looked up)
Growth/differentiation factor …: AAIPVPKLSCKNLCHRHQLFINFRDLGWHKWIIAPKGFMANYCHGECPFSLTISLNSSNYAFMQALMHAVDPEIPQAVCIPTKLSPISMLYQDNNDNVILRHYEDMVVDECGCG
[3]
  SOX17 expression, GDF growth factor substituting for activin A: induced weak expression of SOX17

B4: BMP3: growth factor protein, R&D Systems (protein, UniProt P12645 363-472, looked up)
Bone morphogenetic protein 3: QWIEPRNCARRYLKVDFADIGWSEWIISPKSFDAYYCSGACQFPMPKSLKPSNHATIQSIVRAVGVVPGIPEPCCVPEKMSSLSILFFDENKNVVLKVYPNMTVESCACR
[1]
  induction of SOX17 expression compared to the Wnt3a treatment alone: weak or negligible

B5: GDF10: member of the GDF family of proteins (R&D Systems) (protein, UniProt P55107 369-478, looked up)
Growth/differentiation factor …: QWDEPRVCSRRYLKVDFADIGWNEWIISPKSFDAYYCAGACEFPMPKIVRPSNHATIQSIVRAVGIIPGIPEPCCVPDKMNSLGVLFLDENRNVVLKVYPNMSVDTCACR
[3]
  SOX17 expression, GDF growth factor substituting for activin A: induced significant levels of SOX17 expression

B6: Wnt3a: Wnt3a recombinant protein (R&D Systems) (protein, UniProt P56704 19-352, looked up)
Protein Wnt-3a: SYPIWWSLAVGPQYSSLGSQPILCASIPGLVPKQLRFCRNYVEIMPSVAEGIKIGIQECQHQFRGRRWNCTTVHDSLAIFGPVLDKATRESAFVHAIASAGVAFAVTRSCAEGTAAICGCSSRHQGSPGKGWKWGGCSEDIEFGGMVSREFADARENRPDARSAMNRHNNEAGRQAIASHMHLKCKCHGLSGSCEVKTCWWSQPDFRAIGDFLKDKYDSASEMVVEKHRESRGWVETLRPRYTYFKVPTERDLVYYEASPNFCEPNPETGSFGTRDRTCNVSSHGIDGCDLLCCGRGHNARAERRREKCRCVFHWCCYVSCQECTRVYDVHTCK
[3]; 20 ng/ml Wnt3a or 2.5 μM compound alone, four days
  SOX17 expression, reagent alone: failed to induce SOX17 expression

B7: GDF11: member of the GDF family of proteins (PeproTech) (protein, UniProt O95390 299-407, looked up)
Growth/differentiation factor …: NLGLDCDEHSSESRCCRYPLTVDFEAFGWDWIIAPKRYKANYCSGQCEYMFMQKYPHTHLVQQANPRGSAGPCCTPTKMSPINMLYFNDKQQIIYGKIPGMVVDRCGCS
[3]
  SOX17 expression, GDF growth factor substituting for activin A: induced significant levels of SOX17 expression
